Source: paper PMC11861356

Biological target: IRF3 (UniProt Q14653)
Assay: co-immunoprecipitation of tagged proteins, immunoblot
Conditions: reference: wild-type TBK1; sites Y174

TBK1 (from UniProt Q9UHD2) TBK1 Y174F
binding against the reference: weaker
